Measurements from patent US20240076386A1 (Pfizer, published 2024).

Columns and labels:
[1] = target: T1, human E-selectin extracellular domain with 10 His purification tail (human, UniProt P16581 22-556); experiment: SPR, soluble recombinant protein
T1 construct: also called soluable human E-selectin extracellular domain; rhE-Selectin
T1 sequence: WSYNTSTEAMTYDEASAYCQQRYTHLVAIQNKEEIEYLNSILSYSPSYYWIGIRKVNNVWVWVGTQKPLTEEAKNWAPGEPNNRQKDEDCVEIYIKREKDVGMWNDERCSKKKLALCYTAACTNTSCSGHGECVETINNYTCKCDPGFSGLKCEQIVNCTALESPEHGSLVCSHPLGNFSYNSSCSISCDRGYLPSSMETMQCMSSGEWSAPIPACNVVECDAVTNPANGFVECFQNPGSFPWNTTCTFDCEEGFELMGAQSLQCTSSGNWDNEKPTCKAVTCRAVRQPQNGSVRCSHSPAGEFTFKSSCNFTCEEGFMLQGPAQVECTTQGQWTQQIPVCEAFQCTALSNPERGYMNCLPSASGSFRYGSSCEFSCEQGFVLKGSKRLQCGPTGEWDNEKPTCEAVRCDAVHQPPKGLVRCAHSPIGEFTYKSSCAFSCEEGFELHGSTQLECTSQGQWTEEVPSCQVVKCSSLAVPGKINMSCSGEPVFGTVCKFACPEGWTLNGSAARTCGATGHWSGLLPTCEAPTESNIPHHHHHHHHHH
Method: (§1) To characterize binding of antibodies to human, cynomolgus monkey, and mouse E-selectin, an antibody was diluted to 0.5 μg/mL in HBS-EP+ and captured by the anti-human IgG immobilized on flow cells 2, 3 and 4 for 30 seconds to 1 minute at a flow rate of 10 μL/minute to achieve a capture level of 70 to 300 RU. Flow cell 1 was used as a reference surface. […] HBS-EP+ buffer cycles collected for each captured antibody were used for double-referencing (Myszka D G. J. Mol. Recognition 1999; 12(5):279-84). At the end of each cycle, the entire anti-IgG surface was regenerated by a 30 second pulse of 3 M MgCl₂ and a 30 second pulse of ionic buffer (1.83 M MgCl₂, 0.92 M Urea, 1.83 M Guanidine HCl, pH 7.4) (Andersson K. Analy. Chem. 1999; 71(13): 2475-81). Kinetic assays were conducted at 25° C. at a collection rate of 10 Hertz (Hz) on a BIAcore™ T200 instrument (GE Healthcare). Rate constants and affinities were determined by fitting the data to a 1:1 binding model in BIAcore™ T200 Evaluation software version 3.0 (GE Healthcare).

[2] = target: T2, cynomolgus monkey E-selectin extracellular domain with 10 His purification tail (cynomolgus monkey, UniProt P16581 22-554 (human entry)); experiment: SPR, soluble recombinant protein
T2 construct: also called cynomolgus E-selectin; truncated cynomolgus monkey E-selectin
T2 chain: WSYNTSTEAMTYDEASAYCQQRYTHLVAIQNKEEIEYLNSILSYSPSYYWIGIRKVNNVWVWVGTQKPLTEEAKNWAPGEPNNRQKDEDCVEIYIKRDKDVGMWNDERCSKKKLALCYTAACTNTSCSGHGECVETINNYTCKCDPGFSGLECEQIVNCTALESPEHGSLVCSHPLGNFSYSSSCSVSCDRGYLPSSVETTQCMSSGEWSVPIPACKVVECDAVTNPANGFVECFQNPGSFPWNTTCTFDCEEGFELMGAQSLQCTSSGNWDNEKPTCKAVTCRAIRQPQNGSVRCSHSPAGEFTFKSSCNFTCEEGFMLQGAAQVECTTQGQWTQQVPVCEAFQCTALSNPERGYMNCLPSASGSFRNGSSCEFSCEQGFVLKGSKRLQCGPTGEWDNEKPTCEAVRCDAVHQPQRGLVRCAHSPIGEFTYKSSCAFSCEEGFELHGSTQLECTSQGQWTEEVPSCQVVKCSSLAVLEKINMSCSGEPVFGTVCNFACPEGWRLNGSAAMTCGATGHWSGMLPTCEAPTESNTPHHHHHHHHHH
Method: as §1

- Kd [1]: 68.4 nM
- Kd [2]: 64.9 nM
B1: optimized anti-E-selectin antibody 1444 (antibody, human IgG1, kappa, V domains shown)
VH: EVQLVESGGGLVQPGGSLRLSCAASGYAIRSAYMHWVRQAPGKGLEWVARIDPANGNTIYVDSVTGRFTISADNAKNSAYLQMNSLRAEDTAVYYCAMDLYSTSEYWGQGTLVTVSS
VL: DIQMTQSPSSLSASVGDRVTITCKTSQNIERYLNWYQQKPGKAPKLLIYAASSLQSGVPSRFSGSGSGTDFTLTISSLQPEDFATYFCLQDNAWPLTFGQGTKVEIKR
notes: effector-null human IgG1, kappa
